Source: patent US20230212319A1, “NOVEL ANTIGEN BINDING DOMAINS AND SYNTHETIC ANTIGEN RECEPTORS INCORPORATING THE SAME” (University of Southern California, priority 2020, published 2023)

B1: 10311 (protein)
chain: MALPVTALLLPLALLLHAARPEVQLVESGGGLVQPGGSLRLSCAASGYTFTSYWLHWVRQAPGKGLEWVGYIRPSTGYTEYNQKFKDRFTISADTSKNTAYLQMNSLRAEDTAVYYCARSRWLLDYWGQGTLVTVSSGGGGSGGGGSGGGGSDIQMTQSPSSLSASVGDRVTITCKSSQSLLYSSNQKNYLAWFQQKPGKAPKLLIYWASTRESGVPSRFSGSGSGTDFTLTISSLQPEDFATYFCHQYLSSYTFGQGTKVEIKRTREQKLISEEDLAKPTTTPAPRPPTPAPTIASQPLSLRPEACRPAAGGAVHTRGLDFACDIYIWAPLAGTCGVLLLSLVITLYCKRGRKKLLYIFKQPFMRPVQTTQEEDGCSCRFPEEEEGGCELRVKFSRSADAPAYQQGQNQLYNELNLGRREEYDVLDKRRGRDPEMGGKPRRKNPQEGLYNELQKDKMAEAYSEIGMKGERRRGKGHDGLYQGLSTATKDTYDALHMQALPPR
modifications: Synthetic Polynucloetide
B2: 10380 (protein)
chain: MALPVTALLLPLALLLHAARPEVQLVESGGGLVQPGGSLRLSCAASGFTFTTYWMHWVRQAPGKGLEWVGYIRPSTGYTEYNQKFKDRFTISADTSKNTAYLQMNSLRAEDTAVYYCARSRWLLDYWGQGTLVTVSGGGGSGGGGSGGGGSDIQMTQSPSSLSASVGDRVTITCKSSQSVLYSSNQKNYLAWFQQKPGKAPKLLIYWASTRESGVPSRFSGSGSGTDFTLTISSLQPEDFATYFCHQYLSSYTFGQGTKVEIKRTREQKLISEEDLAKPTTTPAPRPPTPAPTIASQPLSLRPEACRPAAGGAVHTRGLDFACDIYIWAPLAGTCGVLLLSLVITLYCKRGRKKLLYIFKQPFMRPVQTTQEEDGCSCRFPEEEEGGCELRVKFSRSADAPAYQQGQNQLYNELNLGRREEYDVLDKRRGRDPEMGGKPRRKNPQEGLYNELQKDKMAEAYSEIGMKGERRRGKGHDGLYQGLSTATKDTYDALHMQALPPR
modifications: Synthetic Polynucloetide
B3: 22150 (protein)
chain: MALPVTALLLPLALLLHAARPACEVQLLESGGGLIQPGGSLRLSCAASGFTFSSHAMTWVRQAPGKGLEWVSAISGSGDYTHYADSVKGRFTISRDNSKNTVYLQMNSLRAEDSAVYYCAKDEDGGSLLGHRGQGTLVTVSSGTGGGGSGGGGSGGGGSEFDVVMTQSPSSLSASVGDRVTITCMASEDIYIRLAWYQQKPGNAPKLLIYAATSLETGVPSRFSGSGSGTDFTLTISSLQPEDFATYYCQQYWSSPWTFGGGTKVEIKLEADVSPKPTIFLPSIAETKLQKAGTYLCLLEKFFPDVIKIHWQEKKSNTILGSQEGNTMKTNDTYMKFSWLTVPEKSLDKEHRCIVRHENNKNGVDQEIIFPPIKTDVITMDPKDNCSKDANDTLLLQLTNTSAYYMYLLLLLKSVVYFAIITCCLLRRTAFCCNGEKSRAKRSGSGATNFSLLKQAGDVEENPGPTSMDWIWRILFLVGAATGAHSGPQVQLQESGGGLAQAGGSLRLSCAASGRTFSMGWFRQAPGKEREFVAAITYSGGSPYYASSVRGRFTISRDNAKNTVYLQMNSLKPEDTAVYYCAANPTYGSDWNAENWGQGTQVTVSSGSGGGGSGGGGSGGGGSFEQVQLQESGPGLVKPSQTLSLTCTVSGYSITSDYTWNWIRQPPGNGLEWIGYITYSGSTSYNPSLKSRVLISVDTSKNQVSLKLSSVTAADTAVYYCARLGRRYTMDYWGQGTTVTVSSTRPHTKPSVFVMKNGTNVACLVKEFYPKDIRINLVSSKKITEFDPAIVISPSGKYNAVKLGKYEDSNSVTCSVQHDNKTVHSTDFEVKTDSTDHVKPKETENTKQPSKSCHKPKAIVHTEKVNMMSLTVLGLRMLFAKTVAVNFLLTAKLFFLRAKRSGSGVKQTLNFDLLKLAGDVESNPGPSRGHMTEYKPTVRLATRDDVPRAVRTLAAAFADYPATRHTVDPDRHIERVTELQELFLTRVGLDIGKVWVADDGAAVAVWTTPESVEAGAVFAEIGPRMAELSGSRLAAQQQMEGLLAPHRPKEPAWFLATVGVSPDHQGKGLGSAVVLPGVEAAERAGVPAFLETSAPRNLPFYERLGFTVTADVEVPEGPRTWCMTRKPGA
B4: 22151 (protein)
chain: MALPVTALLLPLALLLHAARPMLPAPKNLVVSRITEDSARLSWTAPDAAFDSFPIRYIETLIWGEAIWLDVPGSERSYDLTGLKPGTEYAVVITGVKGGRFSSPLVASFTTGTGGGGSGGGGSGGGGSEFSYVLTQPPSVSVAPGQTARITCGGNNIGGKSVHWYQQPPGQAPVVVVYDDSDRPSGIPERFSGSNSGNTATLTISRVEAGDEAVYYCQVWDSSSDHVVFGGGTKLTVLLEDLKNVFPPEVAVFEPSEAEISHTQKATLVCLATGFYPDHVELSWWVNGKEVHSGVCTDPQPLKEQPALNDSRYCLSSRLRVSATFWQNPRNHFRCQVQFYGLSENDEWTQDRAKPVTQIVSAEAWGRADCGFTSESYQQGVLSATILYEILLGKATLYAVLVSALVLMAMVKRKDSRGRAKRSGSGATNFSLLKQAGDVEENPGPTSMDWIWRILFLVGAATGAHSFEQLQLQESGPGLVKPSETLSLTCTVSGGSISSSSYFWGWIRQPPGKGLEWIGSIYYSGITYYNPSLKSRVTISVDTSKNQFSLKLSSVTAADTAVYYCARHDGAVAGLFDYWGQGTLVTVSSATRIQNPDPAVYQLRDSKSSDKSVCLFTDFDSQTNVSQSKDSDVYITDKCVLDMRSMDFKSNSAVAWSNKSDFACANAFNNSIIPEDTFFPSPESSCDVKLVEKSFETDTNLNFQNLSVIGFRILLLKVAGFNLLMTLRLWSSRAKRSGSGVKQTLNFDLLKLAGDVESNPGPSRGHMTEYKPTVRLATRDDVPRAVRTLAAAFADYPATRHTVDPDRHIERVTELQELFLTRVGLDIGKVWVADDGAAVAVWTTPESVEAGAVFAEIGPRMAELSGSRLAAQQQMEGLLAPHRPKEPAWFLATVGVSPDHQGKGLGSAVVLPGVEAAERAGVPAFLETSAPRNLPFYERLGFTVTADVEVPEGPRTWCMTRKPGA
B5: 22246 (protein)
chain: MALPVTALLLPLALLLHAARPACEVQLLESGGGLIQPGGSLRLSCAASGFTFSSHAMTWVRQAPGKGLEWVSAISGSGDYTHYADSVKGRFTISRDNSKNTVYLQMNSLRAEDSAVYYCAKDEDGGSLLGHRGQGTLVTVSSGTGPQGIFGQPGYINEFDIQMTQSPSSLSASVGDRVTITCKASDHINNWLAWYQQKPGQAPKLLIYGATTLETGVPSRFSGSGSGTDYTLTISSLQPEDFATYYCQQSWNTPWTFGQGTKLEIKRLEDLKNVFPPEVAVFEPSKAEIAHTQKATLVCLATGFYPDHVELSWWVNGKEVHSGVCTDPQPLKEQPALNDSRYCLSSRLRVSATFWQNPRNHFRCQVQFYGLSENDEWTQDRAKPVTQIVSAEAWGRADCGITSASYHQGVLSATILYEILLGKATLYAVLVSALVLMAMVKRKDSRGRAKRSGSGATNFSLLKQAGDVEENPGPTSATMDWIWRILFLVGAATGAHSGPEVQLVESGGGLVQAGGSLRLSCAASGRTFSMGWFRQAPGKEREFVAAITYSGGSPYYADSVKGRFTISRDNAKNTVYLQMNSLKPEDTAVYYCAANPTYGSDWNAENWGQGTQVTVSSGSGGGGSGGGGSGGGGSFEQVQLQQPGAELVKPGASVKMSCKASGYAFSSYWINWMKQKPGQGLEWIGQIYPGDGDTNYNGKFKGRATLTADTSSSTAYMQLSSLTSEDSAVYFCARSITTVVGCAMDYWGQGTSVTVSSTRIQNPDPAVYQLRDSKSSDKSVCLFTDFDSQTNVSQSKDSDVYITDKCVLDMRSMDFKSNSAVAWSNKSDFACANAFNNSIIPEDTFFPSPESSCDVKLVEKSFETDTNLNFQNLSVIGFRILLLKVAGFNLLMTLRLWSSRAKRSGSGVKQTLNFDLLKLAGDVESNPGPSRGHMTEYKPTVRLATRDDVPRAVRTLAAAFADYPATRHTVDPDRHIERVTELQELFLTRVGLDIGKVWVADDGAAVAVWTTPESVEAGAVFAEIGPRMAELSGSRLAAQQQMEGLLAPHRPKEPAWFLATVGVSPDHQGKGLGSAVVLPGVEAAERAGVPAFLETSAPRNLPFYERLGFTVTADVEVPEGPRTWCMTRKPGA

Experiments:
[1] = system: SKOV3-Luc cells; assay: SKOV3 xenograft in NSG mice; conditions: 1 × 10^6 SKOV3-Luc s.c., a week later 3 × 10^6 SAR-T i.v.
[2] = system: L363 cells; assay: JNG assay, co-culture with L363 cells; assay type: cell-based; conditions: co-culture with L363
Outline: (§1)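 Jurkat-NFAT-GFP (JNG) cells stably expressing SAR constructs via lentiviral transduction and puromycin/blasticidin selection were cocultured with target cells at E:T ~1:2 for ~4–18 h. NFAT-driven GFP was measured by FACS versus parental JNG cells; scores +/- to 5+ denote ~5–50% GFP-positive cells.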

[3] = system: U266 cells; assay: JNG NFAT-GFP induction on co-culture with U266; assay type: cell-based
[4] = system: RAJI cells; assay: JNG assay, co-culture with RAJI cells; assay type: cell-based; conditions: JNG cells expressing construct, co-culture with Raji
Outline: as §1

[5] = system: Nalm6 cells; assay: JNG assay, co-culture with Nalm6 cells; assay type: cell-based; conditions: co-culture with Nalm6
Outline: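 Drug-selected populations of SAR-expressing Jurkat-NFAT-GFP cells meet target cells (about 1:2 E:T) for roughly 4–18 h. Flow cytometry gives % GFP+ cells, graded +/- to 5+ (≈5% to ≈50%) relative to the parental control.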

Row | Molecule | tumor inhibition / protection, SKOV3 xenograft [1] | NFAT-GFP ASSAY: L363 [2] | NFAT-GFP ASSAY: U266 [3] | NFAT-GFP ASSAY: Raji [4] | NFAT-GFP ASSAY: Nalm6 [5]
1 | B1 | weak protection | – | – | – | –
2 | B2 | weak protection | – | – | – | –
3 | B3 | – | +/- (refer to approximately 5%, 10%, 20%, 30%, 40% and 50% GFP positive cells) | + (refer to approximately 5%, 10%, 20%, 30%, 40% and 50% GFP positive cells) | + (refer to approximately 5%, 10%, 20%, 30%, 40% and 50% GFP positive cells) | –
4 | B4 | – | 2+ (refer to approximately 5%, 10%, 20%, 30%, 40% and 50% GFP positive cells) | 4+ (refer to approximately 5%, 10%, 20%, 30%, 40% and 50% GFP positive cells) | – | –
5 | B5 | – | + (refer to approximately 5%, 10%, 20%, 30%, 40% and 50% GFP positive cells) | 2+ (refer to approximately 5%, 10%, 20%, 30%, 40% and 50% GFP positive cells) | – | + (refer to approximately 5%, 10%, 20%, 30%, 40% and 50% GFP positive cells)
